Results as given in patent publication US20250263490A1 (VIB VZW, published 2025).
Values belong to the binder of their own block, whether it stands above or below them.

Tests used:
[1] = biological target: T1, recombinant human domain 1-3His6 of the cation-independent mannose-6-phosphate receptor (human, UniProt P11717 41-467); assay: BLI exp 2, dissoc pH not printed (between 6 and 5, presumably 5.5)
T1 construct: Biotinylated (NHS-PEG4-biotin) for BLI; Glycosylated; also called hDom1-3His6; hCI-M6PRD1-D3
Description: For each of the 11 anti-CI-M6PR VHHs, a biolayer interferometry (BLI) experiment was performed in which the hDom₁₋₃His₆ was biotinylated and coupled to streptavidin biosensor tips. Afterwards, the tips were incubated with serially diluted VHHs during the association phase and dissociation was performed at pH 7.4. Similarly, dissociation was performed at pH 7.0, pH 6.0 and pH 5.0 as well after regeneration of the biosensor tips. […] The anti-CI-M6PR antibody (clone 2G11) and GBP were used as positive and negative controls, respectively.
Analysis of the binding kinetics was performed using an Octet Red96 (FortéBio) device with Streptavidin SA Biosensor tips (VWR, 733-2145). To this end, 1 mL of hCI-M6PR_D1-D3 (0.5 mg/mL in 50 mM MES, 150 mM NaCl, pH 6.5) was incubated at room temperature for 30 minutes with a two-fold molar excesses of EZ-Link™ NHS-PEG₄-Biotin (Thermo Fischer, A39259) and NaHCO₃ (100 mM, pH 8.3). Biotinylated hCIMPR_D1-D3 was purified using a Zeba spin desalting column (Thermo Fischer, 89890) and protein concentration was calculated by measuring the absorbance at 280 nm (extinction coefficient 50320 M¹ cm⁻¹). Two-fold biotin-labelled antigen was loaded on the tips (2.5 μg/mL) and subsequently dipped into a particular anti-CI-M6PR VHH-containing solution (ranging from 0-100 nM). […]

[2] = biological target: T1, recombinant human domain 1-3His6 of the …; assay: BLI exp 2, dissoc pH not printed (between 7 and 6, presumably 6.5); pH not given; row between pH 7 and pH 6 (6.5 in the VHH1, VHH7 and VHH8 blocks)
[3] = biological target: T2, mouse cation-independent mannose-6-phosphate receptor on cells (mouse, UniProt Q07113 36-2483); assay: flow cytometry, FLAG3-His6 VHH on mouse bEND3 cells
T2 construct: whole, on cells; also called mouse CI-M6PR of bEND3 cells; mCI-M6PR
Source text: Synthetic DNA fragments encoding VHHs were ordered (IDT, Leuven, Belgium) and subcloned into an E. coli expression vector under control of an IPTG-inducible lac promoter, in frame with N-terminal PelB signal peptide (which directs the recombinant proteins to the periplasmic compartment) and C-terminal FLAG3 and His6 tags. […] VHH proteins were purified from these clones by means of IMAC chromatography followed by desalting according to well established procedures¹⁰⁶. Cells used herein were recovered using cell dissociation non-enzymatic solution (Sigma Aldrich, cat. #C5914-100ML) and resuspended to a final concentration of 1,000,000 cells/mL in FACS buffer. Cells were incubated with different concentrations of purified FLAG3-tagged VHHs for 30 minutes on ice with shaking, followed by washing and incubation with mouse M2 anti-Flag mAb (Sigma Aldrich, cat. #F-1804) in FACS buffer for 30 min on ice with shaking, followed again by washing. […] Flow cytometry and analysis were done on an Attune NxT Flow Cytometer (Thermo Fisher Scientific).
Moreover, cross-reactivity to mouse CI-M6PR was analyzed, in view of the amino acid homology between mouse and human being overall about 80% identity, but for domain 1-3 of CI-M6PR just about 75% identity.

[4] = biological target: T1, recombinant human domain 1-3His6 of the …; assay: BLI
[5] = biological target: T1, recombinant human domain 1-3His6 of the …; assay: BLI, dissoc pH 5, mean of local fits
Description: (§1) FIGS. 58 & 59. […] BLI was performed on an Octet Red96 (FortéBio) instrument in kinetics buffer (0.2 M Na₂HPO₄, 0.1 M Na⁺ citrate, 0.01% bovine serum albumin, 0.002% Tween-20). Biotinylated human domain₁₋₃His₆ was immobilized on Streptavidin SA biosensors (Sartorius) to a signal of 0.6 nm. […] Between assays, biosensors were regenerated by three times 10 s exposure to regeneration buffer (10 mM glycine pH 3). The degree of association and dissociation was measured in δ nm over time (s).
(§2) After loading, the tips were incubated with VHHs serially diluted in pH 7.4 kinetic buffer during the association phase and dissociation was performed at pH 7.4, pH 6.5, pH 6.0, pH 5.5 and pH 5.0. All biosensor tips were then regenerated before analysis of the subsequent VHH. Table 13 summarizes the kinetic parameters retrieved after processing and curve fitting of the BLI measurements. When both association and dissociation were performed at pH 7.4, a global fit was performed according to the 1:1 binding model of which the resulting affinity constants (KD), association (kₒₙ) and dissociation rate constants (koff) are shown. For measurements with association at pH 7.4 and dissociation at pH 6.5, 6.0, 5.5 and 5.0, the depicted dissociation rate constants are an average of the parameters determined by local curve fitting of the dissociation of 200, 100 and 50 nM VHH.

[6] = biological target: T1, recombinant human domain 1-3His6 of the …; assay: BLI, dissoc pH 6.5, mean of local fits
Description: as §1, §2

[7] = biological target: T1, recombinant human domain 1-3His6 of the …; assay: BLI, global 1:1 fit, pH 7.4
Description: as §1, §2

T2 sequence (Q07113 36-2483): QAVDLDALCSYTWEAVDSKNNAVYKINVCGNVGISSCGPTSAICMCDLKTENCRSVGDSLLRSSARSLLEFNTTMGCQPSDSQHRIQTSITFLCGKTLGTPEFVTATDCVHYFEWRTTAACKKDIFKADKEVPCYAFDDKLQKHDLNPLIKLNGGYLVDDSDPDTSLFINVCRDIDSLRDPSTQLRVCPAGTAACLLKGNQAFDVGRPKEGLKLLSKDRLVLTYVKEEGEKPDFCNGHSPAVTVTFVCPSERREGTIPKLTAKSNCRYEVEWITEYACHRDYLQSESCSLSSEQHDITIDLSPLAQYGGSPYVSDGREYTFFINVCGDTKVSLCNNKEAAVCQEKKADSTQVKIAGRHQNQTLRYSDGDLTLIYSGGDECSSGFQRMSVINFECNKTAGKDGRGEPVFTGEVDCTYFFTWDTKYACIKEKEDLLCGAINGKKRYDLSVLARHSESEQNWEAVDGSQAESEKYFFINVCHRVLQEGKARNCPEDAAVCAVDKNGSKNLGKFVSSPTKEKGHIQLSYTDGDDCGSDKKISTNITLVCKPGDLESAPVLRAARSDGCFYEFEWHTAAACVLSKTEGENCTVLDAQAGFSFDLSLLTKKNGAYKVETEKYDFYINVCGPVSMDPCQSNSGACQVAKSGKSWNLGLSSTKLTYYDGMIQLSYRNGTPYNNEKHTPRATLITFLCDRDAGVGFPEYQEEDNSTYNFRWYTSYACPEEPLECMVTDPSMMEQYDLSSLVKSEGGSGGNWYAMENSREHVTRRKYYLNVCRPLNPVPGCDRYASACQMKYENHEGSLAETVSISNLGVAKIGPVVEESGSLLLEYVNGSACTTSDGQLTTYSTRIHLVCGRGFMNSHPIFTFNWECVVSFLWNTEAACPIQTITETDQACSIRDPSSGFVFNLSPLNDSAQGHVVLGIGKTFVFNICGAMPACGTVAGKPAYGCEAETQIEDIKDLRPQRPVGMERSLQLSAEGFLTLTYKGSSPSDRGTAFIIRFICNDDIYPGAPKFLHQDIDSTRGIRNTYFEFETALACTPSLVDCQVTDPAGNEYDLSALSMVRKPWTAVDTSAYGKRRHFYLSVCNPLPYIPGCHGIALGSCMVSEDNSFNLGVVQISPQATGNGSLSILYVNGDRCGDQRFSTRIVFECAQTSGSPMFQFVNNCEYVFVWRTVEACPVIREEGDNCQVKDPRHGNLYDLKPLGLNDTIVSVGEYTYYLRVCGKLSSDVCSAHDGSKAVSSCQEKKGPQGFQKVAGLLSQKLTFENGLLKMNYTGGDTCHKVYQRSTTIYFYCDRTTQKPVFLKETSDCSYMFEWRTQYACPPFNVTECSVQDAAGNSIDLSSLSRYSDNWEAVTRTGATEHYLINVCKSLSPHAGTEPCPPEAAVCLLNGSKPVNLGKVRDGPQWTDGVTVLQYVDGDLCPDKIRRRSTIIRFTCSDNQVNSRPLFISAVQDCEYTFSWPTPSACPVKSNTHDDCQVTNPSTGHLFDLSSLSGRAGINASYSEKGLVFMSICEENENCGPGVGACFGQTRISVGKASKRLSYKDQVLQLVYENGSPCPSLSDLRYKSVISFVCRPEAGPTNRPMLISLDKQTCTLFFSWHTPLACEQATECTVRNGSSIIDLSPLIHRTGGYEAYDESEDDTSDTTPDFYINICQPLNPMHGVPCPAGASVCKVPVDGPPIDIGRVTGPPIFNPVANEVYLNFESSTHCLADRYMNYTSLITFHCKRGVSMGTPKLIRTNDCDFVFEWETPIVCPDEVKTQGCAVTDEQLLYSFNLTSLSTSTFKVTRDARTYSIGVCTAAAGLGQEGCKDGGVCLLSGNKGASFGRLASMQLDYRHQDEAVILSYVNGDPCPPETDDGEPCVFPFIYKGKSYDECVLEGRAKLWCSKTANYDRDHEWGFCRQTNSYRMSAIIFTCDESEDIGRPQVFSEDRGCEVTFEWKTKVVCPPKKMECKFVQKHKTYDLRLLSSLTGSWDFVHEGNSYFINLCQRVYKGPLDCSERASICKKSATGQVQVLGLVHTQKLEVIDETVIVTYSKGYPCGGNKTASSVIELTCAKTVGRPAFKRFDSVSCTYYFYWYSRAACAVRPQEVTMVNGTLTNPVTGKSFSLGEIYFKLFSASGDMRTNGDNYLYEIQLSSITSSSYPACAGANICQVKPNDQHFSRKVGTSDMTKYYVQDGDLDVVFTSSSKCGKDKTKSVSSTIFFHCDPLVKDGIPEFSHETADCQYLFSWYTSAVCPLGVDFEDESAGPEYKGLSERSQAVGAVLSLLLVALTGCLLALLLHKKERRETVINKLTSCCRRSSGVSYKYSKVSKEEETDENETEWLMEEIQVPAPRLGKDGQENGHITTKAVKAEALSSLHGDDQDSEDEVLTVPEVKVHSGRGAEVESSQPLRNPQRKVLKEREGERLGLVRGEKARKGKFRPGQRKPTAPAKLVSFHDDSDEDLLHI

koff [1]: 0.00062 s⁻¹
kon [1]: 2.1e+06 M⁻¹ s⁻¹
kon [2]: 1.3e+06 M⁻¹ s⁻¹
B1: anti-CI-M6PR VHH5 (VHH)
VHH: QVQLQESGGGLVQAGGSLKLSCAAAGRTFSRLAMGWFRQAPGKEREFVAAISENGDSIHYSDSVKGRFAVSRDNAKNTVYLQMNSLKPEDTAIYYCAADRAAYYCSGSGCYPSRAPAAASYDYWGQGTQVTVSS
notes: His6-tagged; made in Pichia pastoris, later also in E. coli WK6

EC50 [3]: ~8.5 nM
fold higher dissociation rate at pH 6.0 versus pH 7.4 [4]: 5 fold
B2: anti-CI-M6PR VHH7 (VHH)
VHH: QVQLQESGGGLVQPGGSLRLSCAASGIIFSDNRMDWYRQAPGKQREWVATLASYGWKTYADSVKGRFTISRDNTKNTVYLRMNSLKPEDTAVYYCKASSPVLNDIWGQGTQVTVSS
notes: His6-tagged (Pichia pastoris)

koff [5]: 0.0083 s⁻¹
koff [6]: 0.0048 s⁻¹
Kd [7]: 4.9 nM
koff [7]: 0.0025 s⁻¹
kon [7]: 510000 M⁻¹ s⁻¹
B3: anti-CI-M6PR VHH 1H11 (VHH)
VHH: QVQLQESGGGLVQPGGSLRLSCAASGIIFSDNRMDWYRQAPGKQREWVATLASYGWKTYADSVKDRFTISRDNAKNTVNLYMNSLQPEDTAVYYCNSGQYWGQGTQVTVSS
notes: made in E. coli WK6, His-tag purified
